Molecular target: T1, RNase P protein (SPP, SP protein) (Staphylococcus aureus) (UniProt A8YYS2)
T1 sequence: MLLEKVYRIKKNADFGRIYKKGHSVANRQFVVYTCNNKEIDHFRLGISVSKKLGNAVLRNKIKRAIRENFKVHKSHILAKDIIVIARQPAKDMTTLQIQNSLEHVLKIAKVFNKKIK
Test: filter

GUUCUGAUAUUUUGGGUAAUCGCUAUAUUAUAUAGAGGAAAGUCCAUGCUCACACAGUCUGAGAUGAUUGUAGUGUUCGUGCUUGAUGAAACAAUAAAUCAAGGCAUUAAUUUGACGGCAAUGAAAUAUCCUAAGUCUUUCGAUAUGGAUAGAGUAAUUUGAAAGUGCCACAGUGACGUAGCUUUUAUAGAAAUAUAAAAGGUGGAACGCGGUAAACCCCUCGAGUGAGCAAUCCAAAUUUGGUAGGAGCACUUGUUUAACGGAAUUCAACGUAUAAACGAGACACACUUCGCGAAAUGAAGUGGUGUACGACAGAUGGUUAUCACCUGAGUACCAGUGUGACUAGUGCACGUGAUGAGUACGAUGGAACAGAACAUGGCUUAUAGAAAUAUCACUACUA [S. aureus RNase P RNA (SP RNA)]
Kd (20 mM K-Hepes pH 8.0, 0.01% NP40, 400 mM NH4OAc, 10 mM MgCl2, 5% glycerol, at least three experiments): 8 nM
Kd (binding constant of the complex stated in summary, filter binding and gel shift, differs from 8 nM in p322): 20 nM

— patent US20030191083
